This note sets out measurements from the DeepSol protein solubility set.

The data set in a line: soluble on expression in E. coli; label from the status in PepcDB or PDB records.
On to “MILLLLLFILGSVSPDELISTRCQAQCLHLMDQRLQNNMELRKTLKHHIIQLCKEDATCSACSAPCREQFDDIKACKKSCVASDDRETCEDSCHYLQRIYQEKPGACPSVSNQSNYECSALCQMDGECPETQKCCSSGCSRQCLKPRSSDIKLLPIPRNISVQERKRKRSIIIRWATGRLSKAQQNENANLFLVQWRWGLHADESAMTEWQTVTVRNKPYAILKHLLSPGRFYEFRTAAVSQEGSLGFSSPSKPFKISKEAKAPPPPKDLSLGASKVVASGLWNQMVHWNPPPSDLPIKNYQISWASSTKSEADAFEEQMRKKSTLEFAAHEKRSLQSDDDEEFIGIQERDRQSVVVPSHATSSEITGLFPNSVYLVEIHASVDSSDGELHGEKGVVFIRTADSLSAVPEDREPYTGPKARIAHGSEELKIEASLKDLKTSSHAPNRPNSPQPAHLEIQTPFFDTELQTQLNWLNAAHCTPAKRQFSVKVRKTLCREYQPNHHSDTRWHDLRVTDCSALLKGLSFDCDYKVEVTDTLTGDFVVDGVFSTDTCDQTSSLTPIDCSSVTTPIQCQVTSESSAHCHWTRHHDAMQTVIGYRILLSSPINHDTNTTINQPQLREVRYENLAPGYVYTVEVQSITNKGLGRTVSTQFVTHPDLDSNAIQRFPGGEIIELPLESSGKLSIFSIFSSFFLVLLLRLL”, for which the “soluble on expression in E. coli” value is given as “not soluble”.

On to “MKMATDDHQPPMVRGRRIKLKYAHAGGYNPPIVVIHGNMVRELPDSYKRYLMNYFRKSLEIMGTPIRINFQNSENPFENRANKLTLSQERKRKRMMSVVKNRKK”, for which the “soluble on expression in E. coli” value is “not soluble”.

On to “MSLEMKTYIIEKLRETEAIYYIEILLAVESGSRAWGFASPDSDYDIRFIYRHSKDWYLTPWDKDETITFMTEDDLDGSGWDLNKTFHLLLKSNAALLSWFYSPIVYIENKSFTKLFKPLVDQCFSPIAVSFHYLSMSKKYLESCRNDEVKLKSYFYCLRTALSGKWITEKKTVPPVLFSDLLVLADSTIRTKIENLIALKATKGESYFHPNDWELFEFMERQISENEEKAKSLSGSKTDKAQMEKVFREIISEGHHHHHH”, for which the “soluble on expression in E. coli” value was “not soluble”.

Take “MSTIHEFPKNYERFIAQGEEALVEHNQIAALENFQQAYQLQQTPPVNQKIVQLLLEMGEADEALALAEAFQESYFENLETAAIYMQIYSQSRRFIEGYILLKQLLQTKKITLAQQKTLEQQLMQVEEAYQQLETQQIQAIKRNLLVSDQLPVYQQLANIKTSLYLPKPVFVEVAKDLVMNQALSYFAREWFIEELALLQFSEPLTFLWYDNQPQTVLLEGKTGPLNTPIYSEICTELRNRLENDDPIMLQHLEEEIRLHLAYLYPLAETVISDPTIWVLGYLATYYPEYIEKELTEAKGHQIDAVQKVQQAIRTAFTQIML”: the “soluble on expression in E. coli” value is recorded as “soluble”.

In the case of “MNLNIDWSKDFQEFQEILNSGIHPEWLYCAKANLVLEPAYTGEGKQFFSTQDIIYASKIIPFFLEHHHHHH”, the “soluble on expression in E. coli” value is given as “not soluble”. For the sequence “GSDNESDEEVAGKKSFSAQEREYIRQGKEATAVVDQILAQEENWKFEKNNEYGDTVYTIEVPFHGKTFILKTFLPCPAELVYQEVILQPERMVLWNKTVTACQILQRVEDNTLISYDVSAGAAGGVVSPRDFVNVRRIERRRDRYLSSGIATSHSAKPPTHKYVRGENGPGGMIVLKSASNPRVCTFVWILNTDLKGRLPRYLIHQSLAATMFEFAFHLRQRISELGAR”, the “soluble on expression in E. coli” value is on record as “soluble”. In the case of “YEMSSVGVINLRNMYSTYDPTEVKGKINEGPPFSGSLFYKNIPYGNSSIELKVEMNSVEKANFFSGKRVDIFTLEYSPPSNSNIKKNSYGGITLSDGNRIDKKNIPVNIFIDGVQQKYSYTDISTVSTDKKEVTIQELDVKSRYYLQKHFNIYGFGDVKDFGRSSRFQSGFEEGNIIFHLNSGERISYNMFDTGHGDRESMLKKYSDNKTAYSDQLHIDIYLVKFNK”, the “soluble on expression in E. coli” value is “soluble”.

Take “GMDAGRGAEHDEAVTSDDSASVEVPRRATPADAATVAQMLHDFNTEFGAPTPGTDELASRLSHLLAGEDVVVLLAGEPPTGLAVLSFRPNVWYPGPVAILDELYVRPGRRGHRLGSALLAASCGLVRSRGGALLEINVDGEDTDARRFYEARGFTNTEPNGTEPMLYYYREL”: the “soluble on expression in E. coli” value is listed as “soluble”. To “MLETNVDQKSFKFKIVLLGEGCVGKSSLVLRFVENKFSCKHLSTIQASFQNKTVNVEDCQADLHIWDTAGQEKYHALGPIYYRGSNGVLLVFDITDRKSFEKVKNWVLEIKTCLGNTAEILIVGNKIDLEEERQVTRQDAEAYAESEGALYMETSAQDNVGISDAFESLTAKMIEHSRTRSTEPPSTNRSIRLIDNDEAERSKKCCR” belongs “not soluble”; to “MGSDKIHHHHHHMKICVLYSGGKDSTYALHWAVFKGFEVVCLITLIPKREDSWMFQYPNVIYTKYQAEAMDFKLITFGTSGEKDKELEDLKKALLQAKNEGADGIVSGALLSDYQRLNISIIAEELGLKTYTPLWRKSQEEYMRWLVKEGFKFIITSASAYGFPFDLVGKEITTEDVEKIIERARRYGFNPAFEGGEAETFVTYAPLFKTQLRVNGKLKRISEYECRYEITDIH”, “not soluble”; to “MIVKTEEELQALKEIGYICAKVRNTMQAATKPGITTKELDNIAKELFEEYGAISAPIHDENFPGQTCISVNEEVAHGIPSKRVIREGDLVNIDVSALKNGYYADTGISFVVGESDDPMKQKVCDVATMAFENAIAKVKPGTKLSNIGKAVHNTARQNDLKVIKNLTGHGVGLSLHEAPAHVLNYFDPKDKTLLTEGMVLAIEPFISSNASFVTEGKNEWAFETSDKSFVAQIEHTVIVTKDGPILTTKIEEE”, “soluble”.

For “MGSDKIHHHHHHMNSKNPRTTIPAPLQSILSAIPLFAPLPPDDINTLSKLIEIQVFPKNRTILHEADTANYMYLVLAGKVRVVQHSNDGTEQVLAIHRKGAFFGEMALLDGRTSPATLIAHEDATVGLIARTAFENQILTNDRMLRQIISVLCSRLRESWFLMKLSRFSSAEQKVRGVLKYLGTQYGVDDSRGKILSIKLTHRTVAGYASVSRETASRILGRFSRAGEIELLASRRMLLKPTLFLNPPFL”, the “soluble on expression in E. coli” value is on record as “not soluble”.

For the sequence “MQSLIGLMRPETGKKLENLNHFIQQFEKVLIAFSGGVDSSTLAAVCSNAGVEVLAVTVLSSVSPRREMEEAKRIAEELGVRHEFLKIDLMDEDFRRNDENRCYYCKRRVLSALVEEAKKRGIEVVLEGTNASDLSDHRPGYRAVRELDGVNSPWVEFGITKEEIREIARSMGYSFHDKPSMACLASRIPFGIEIDEEKLKMVDEAEEAVIELAGVKQVRVRNYDGVAVVEVAGDELRKLLNCAEKVRDKLKKIGFRAVLIDLEGYRSGKRLFKF”, the “soluble on expression in E. coli” value is listed as “not soluble”.

In the case of “MTAQTLYDKLWNSHVVREEEDGTVLLYIDRHLVHEVTSPQAFEGLKMAGRKLWRIDSVVSTADHNTPTGDWDKGIQDPISKLQVDTLDKNIKEFGALAYFPFMDKGQGIVHVMGPEQGATLPGMTVVCGDSHTSTHGAFGALAHGIGTSEVEHTMATQCITAKKSKSMLISVDGKLKAGVTAKDVALYIIGQIGTAGGTGYAIEFGGEAIRSLSMESRMTLCNMAIEAGARSGMVAVDQTTIDYVKDKPFAPEGEAWDKAVEYWRTLVSDEGAVFDKEYRFNAEDIEPQVTWGTSPEMVLDISSKVPNPAEETDPVKRSGMERALEYMGLEAGTPLNEIPVDIVFIGSCTNSRIEDLREAAAIAKDRKKAANVQRVLIVPGSGLVKEQAEKEGLDKIFIEAGFEWREPGCSMCLAMNADRLTPGQRCASTSNRNFEGRQGNGGRTHLVSPAMAAAAAVTGRFTDIRMMA”, the “soluble on expression in E. coli” value was “not soluble”. To “MPEQSIEMTPDSSVYKALLESTKAIPWKINWQTMAFEYIGPQIEALLGWPQGSWKSVEDWATRMHPEDQEWVVNFCVKQSECGVDHEADYRALHRDGHYVWIRDVVHVVRDDSGEVEALIGFMFDISERKKTLEHHHHHH” belongs “not soluble”; to “MPTPYHLNMAAPLRIQLTPEEDRLLLELSLDPRTHKKTRLWAMMVRLAAEGWTAPKIAQHFHKDRTTVYLVLRRFLREGLQGLAYRKPPGAPRKFTPEMAAFVEERLAEDRVWTAPQLAAALAERFGVRLAPKVVARHLRAMGYVWRRTRYVPLGKPTEEEVKAFAEEEEEAKRGRRRG”, “soluble”; to “MGHHHHHHSHMTECRKSVPCGWERVVKQRLFGKTAGRFDVYFISPQGLKFRSKSSLANYLHKNGETSLKPEDFDFTVLSKRGIKSRYKDCS”, “not soluble”. As for “MGSDKIHHHHHHMERPILGKYIIKGKIILETGLRIGGQELGVNIGGIDNPVIRNPLTGEPYIPGSSVKGKMRSLMERLLNLDISGNKVRRHECEERECKVCRVFGSTSKEGNNIPSRLLVRDAFLTEDSKTKLLSMETDLPYTEWKTENALDRVTCKADPRSFERIPAGAEFEFEIIYTAENEKHIKEDLENIATALELLEDDYLGGNGSRGYGKVKFSIEKVIFKSADYYKGEGTPVEKEVKGGVEGFKKAIPEIVKG”, the entry is “not soluble”; as for “MRLHPRTEAAKESIFPRMSGLAQRLGAVNLGQGFPSNPPPPFLLEAVRRALGRQDQYAPPAGLPALREALAEEFAVEPESVVVTSGATEALYVLLQSLVGPGDEVVVLEPFFDVYLPDAFLAGAKARLVRLDLTPEGFRLDLSALEKALTPRTRALLLNTPMNPTGLVFGERELEAIARLARAHDLFLISDEVYDELYYGERPRRLREFAPERTFTVGSAGKRLEATGYRVGWIVGPKEFMPRLAGMRQWTSFSAPTPLQAGVAEALKLARREGFYEALREGYRRRRDLLAGGLRAMGLRVYVPEGTYFLMAELPGWDAFRLVEEARVALIPASAFYLEDPPKDLFRFAFCKTEEELHLALERLGRVVNSPREAEGGAVSG”, “soluble”; as for “MGSDKIHHHHHHMPYDEILPIETLVRPKVSDFREHYLEKERPVKIARALDAWPAMQKWSLDYFENRFGDETIGVESFQPDERGPGNNSPQGYVKHLRFQELKLKELIRILRTKPDHMYYMASHPFRKSFPNLRADLAPHPYVQGHIEHIPGAHMDSYLWIGPAGTHTPIHTDPMPNFLTQIVGRKMVYLFPPDQASKNLYIGQFERETFSPVDLEKPDLERYPNYRHCTPYRAIIEPGETLHIPRNWGHCVISMDISISISTFFITYPQLFRLVPEFFTQYVKRAFEGWRWKGMENERAGLNPPPR”, “not soluble”.

Regarding “MGSDKIHHHHHHMTEKLVAEKISNRHPAAAPLATGQVPWAIKGELILNCNCTVFCPCVVSLGKHAPTEGYCQAWSGVRIDEGHYGDEDLSGLNVGLMLEIPGLMARGNWKAAAYIDERSSSAAYEGLVNIFSGKARGTTGLFAVLVSEFLGAERAPVIFETEGNARRLMVGKKIQGEIVPVPGKGGADQVVTNTEYWMGPDITVATATKGRVRAFGRVWDFDGRSAEICQIDWSGPR”, the “soluble on expression in E. coli” value is on record as “not soluble”. Turning to “MSLDKQNHKIFEILADKVSAKDNVITASGNAILLNYDVYILADKVRYDTKTKEALLEGNIKVYRGEGLLVKTDYVKLSLNEKYEIIFPFYVQDSVSGIWVSADIASGKDQKYKVKNMSTSGCSIDNPIWHVNATSGSFNMQKSHLSMWNPKIYVGDIPVLYLPYIFMSTSNKRTTGFLYPEFGTSNLDGFIYLQPFYLAPKNSWDMTFTPQIRYKRGFGLNFEARYINSKNDRFLFNARYFRNYTQYVKRYDLRNQNIYGFEFLSSSRDTLQKYFHLKSNIDNGHYIDFLYMNDLDYVRFEKVNKRITDATHMSRANYYLQTENNYYGLNIKYFLNLNKINNNRTFQSVPNLQYHKYLNSLYFRNLLYSVDYQFRNTAREIGYGYVQNALNVPVGLQFSLFKKYLSLGLWNDLQLSNVALMQSKNSFVPTIPNESREFGNFVSSNFSMYVNTDLAREYNKLFHTIQLEAIFNIPYYTFKNGLFSQNMYALSAQALNSYTSPLLRDYDYQGRLYDSVWNPSSILPSNASNKTVDLTLTQYLYGLGGQELLYFKISQLINLDDKVSPFRMPLESKIGFSPLTGLNIFGNVFYSFYQNRLEEISVNANYQRKFLSFNLSYFLKNNFSSGINSIVENEGHHHHHH”, the “soluble on expression in E. coli” value is listed as “not soluble”.
